The labels stand for the following.
B2: ethylene receptor ethylene response 1 (ETR1), wild type (receptor, Arabidopsis, UniProt P49333 1-738, looked up)
chain: MEVCNCIEPQWPADELLMKYQYISDFFIAIAYFSIPLELIYFVKKSAVFPYRWVLVQFGAFIVLCGATHLINLWTFTTHSRTVALVMTTAKVLTAVVSCATALMLVHIIPDLLSVKTRELFLKNKAAELDREMGLIRTQEETGRHVRMLTHEIRSTLDRHTILKTTLVELGRTLALEECALWMPTRTGLELQLSYTLRHQHPVEYTVPIQLPVINQVFGTSRAVKISPNSPVARLRPVSGKYMLGEVVAVRVPLLHLSNFQINDWPELSTKRYALMVLMLPSDSARQWHVHELELVEVVADQVAVALSHAAILEESMRARDLLMEQNVALDLARREAETAIRARNDFLAVMNHEMRTPMHAIIALSSLLQETELTPEQRLMVETILKSSNLLATLMNDVLDLSRLEDGSLQLELGTFNLHTLFREVLNLIKPIAVVKKLPITLNLAPDLPEFVVGDEKRLMQIILNIVGNAVKFSKQGSISVTALVTKSDTRAADFFVVPTGSHFYLRVKVKDSGAGINPQDIPKIFTKFAQTQSLATRSSGGSGLGLAISKRFVNLMEGNIWIESDGLGKGCTAIFDVKLGISERSNESKQSGIPKVPAIPRHSNFTGLKVLVMDENGVSRMVTKGLLVHLGCEVTTVSSNEECLRVVSHEHKVVFMDVCMPGVENYQIALRIHEKFTKQRHQRPLLVALSGNTDKSTKEKCMSFGLDGVLLKPVSLDNIRDVLSDLLEPRVLYEGM
notes: Solubilised in beta-D-dodecylmaltoside; also called sensor kinase ETR1; AtETR1

One data set has as its target CheW (UniProt P0A964). The following applies: cited from earlier work.
Data set [1] concerns the molecule itself. Put plainly: fluorescence polarisation; Perrin plot of a single dansylated protein at 0.2 uM; 0.2 M potassium phosphate pH 8.0, 0.05% beta-D-dodecylmaltoside, 10 mM beta-cyclodextrin; 5-25 C; apparent molecular weight.
Data set [2] deals with the molecule itself. Kind of data set: fluorescence polarisation; Perrin plot of 2 uM ETR1 together with 0.2 uM dansylated AHP1; 0.2 M potassium phosphate pH 8.0, 0.05% beta-D-dodecylmaltoside, 10 mM beta-cyclodextrin; 5-25 C; apparent molecular weight. In general terms: Fluorescence polarisation rises when a labelled molecule tumbles more slowly, as on binding a larger partner.

Data set [3] has as its target T1, dansylated AHP1 (Arabidopsis), Q9ZNV9.
T1 chain: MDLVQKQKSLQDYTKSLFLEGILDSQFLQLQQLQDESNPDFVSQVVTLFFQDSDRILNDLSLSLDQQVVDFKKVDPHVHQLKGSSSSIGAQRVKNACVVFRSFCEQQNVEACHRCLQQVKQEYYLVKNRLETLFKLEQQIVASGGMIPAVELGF
Kind of data set: fluorescence polarisation; Perrin plot of a single dansylated protein at 0.2 uM; 0.2 M potassium phosphate pH 8.0, 0.05% beta-D-dodecylmaltoside, 10 mM beta-cyclodextrin; 5-25 C; apparent molecular weight. The following applies: remark: other sources report otherwise.

The target is the same in data set [4]. Kind of data set: fluorescence polarisation; Perrin plot of 2 uM ETR1 together with 0.2 uM dansylated AHP1; 0.2 M potassium phosphate pH 8.0, 0.05% beta-D-dodecylmaltoside, 10 mM beta-cyclodextrin; 5-25 C; apparent molecular weight. The following applies: remark: other sources report otherwise.
Data set [5] has as its target T2, AHP1-GFP(S65T), wild type Arabidopsis histidine-containing phosphotransfer protein 1 fused to green fluorescent protein (Arabidopsis), Q9ZNV9.
T2 chain: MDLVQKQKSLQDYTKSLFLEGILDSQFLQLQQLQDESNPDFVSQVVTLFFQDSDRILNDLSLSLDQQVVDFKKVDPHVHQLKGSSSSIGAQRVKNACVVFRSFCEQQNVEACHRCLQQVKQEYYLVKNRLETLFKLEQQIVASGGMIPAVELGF
Put plainly: fluorescence polarisation; Perrin plot (anisotropy against temperature/viscosity) of 20 nM AHP1-GFP; 50 mM Tris-HCl pH 7.5, 100 mM KCl, 0.1% beta-D-dodecylmaltoside, 0.002% PMSF; 10-30 C, 0-20% glycerol; apparent molecular weight. The following applies: remark: other sources report otherwise.

The target in data set [6] is B2. Kind of data set: fluorescence polarisation; Perrin plot of 2 uM ETR1 together with 0.2 uM dansylated AHP1; 0.2 M potassium phosphate pH 8.0, 0.05% beta-D-dodecylmaltoside, 10 mM beta-cyclodextrin; 5-25 C; apparent molecular weight. The following applies: both partners purified.
The target in a further data set is T3, ETR1-D659A (Arabidopsis, UniProt P49333 1-738, D659A).
T3 construct: Represents the non-phosphorylated state of the receiver domain
T3 sequence (looked up): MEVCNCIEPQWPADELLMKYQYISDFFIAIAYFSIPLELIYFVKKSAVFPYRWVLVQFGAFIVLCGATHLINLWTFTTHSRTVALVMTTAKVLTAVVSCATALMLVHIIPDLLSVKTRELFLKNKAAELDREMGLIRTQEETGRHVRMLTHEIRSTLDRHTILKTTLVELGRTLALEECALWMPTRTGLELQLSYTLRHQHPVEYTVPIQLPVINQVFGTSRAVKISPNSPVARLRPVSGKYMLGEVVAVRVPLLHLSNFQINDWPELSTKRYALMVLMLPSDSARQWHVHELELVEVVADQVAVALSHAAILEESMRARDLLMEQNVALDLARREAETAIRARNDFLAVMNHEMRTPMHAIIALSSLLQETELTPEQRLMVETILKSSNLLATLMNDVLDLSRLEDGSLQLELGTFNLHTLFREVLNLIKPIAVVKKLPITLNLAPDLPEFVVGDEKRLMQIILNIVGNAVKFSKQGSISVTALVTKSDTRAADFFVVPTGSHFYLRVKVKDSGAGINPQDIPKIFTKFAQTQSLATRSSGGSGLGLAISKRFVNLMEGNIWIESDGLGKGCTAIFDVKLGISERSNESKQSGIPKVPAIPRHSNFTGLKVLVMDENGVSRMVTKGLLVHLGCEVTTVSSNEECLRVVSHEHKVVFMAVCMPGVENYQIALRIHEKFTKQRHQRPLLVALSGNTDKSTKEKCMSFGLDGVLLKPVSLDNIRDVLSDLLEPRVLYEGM
Kind of data set: fluorescence polarisation; ETR1 mutant (0.04-20 uM) titrated to 8 nM AHP1 mutant-GFP(S65T); 50 mM Tris-HCl pH 7.5, 100 mM KCl, 0.1% beta-D-dodecylmaltoside, 0.002% PMSF; fit to a single binding site. The following applies: both partners purified.

In another data set the target is T4, ETR1-D659E (Arabidopsis, UniProt P49333 1-738, D659E).
T4 construct: Phosphomimetic of the receiver domain aspartate; also called ETR1 mutant mimicking permanent phosphorylation
T4 sequence (looked up): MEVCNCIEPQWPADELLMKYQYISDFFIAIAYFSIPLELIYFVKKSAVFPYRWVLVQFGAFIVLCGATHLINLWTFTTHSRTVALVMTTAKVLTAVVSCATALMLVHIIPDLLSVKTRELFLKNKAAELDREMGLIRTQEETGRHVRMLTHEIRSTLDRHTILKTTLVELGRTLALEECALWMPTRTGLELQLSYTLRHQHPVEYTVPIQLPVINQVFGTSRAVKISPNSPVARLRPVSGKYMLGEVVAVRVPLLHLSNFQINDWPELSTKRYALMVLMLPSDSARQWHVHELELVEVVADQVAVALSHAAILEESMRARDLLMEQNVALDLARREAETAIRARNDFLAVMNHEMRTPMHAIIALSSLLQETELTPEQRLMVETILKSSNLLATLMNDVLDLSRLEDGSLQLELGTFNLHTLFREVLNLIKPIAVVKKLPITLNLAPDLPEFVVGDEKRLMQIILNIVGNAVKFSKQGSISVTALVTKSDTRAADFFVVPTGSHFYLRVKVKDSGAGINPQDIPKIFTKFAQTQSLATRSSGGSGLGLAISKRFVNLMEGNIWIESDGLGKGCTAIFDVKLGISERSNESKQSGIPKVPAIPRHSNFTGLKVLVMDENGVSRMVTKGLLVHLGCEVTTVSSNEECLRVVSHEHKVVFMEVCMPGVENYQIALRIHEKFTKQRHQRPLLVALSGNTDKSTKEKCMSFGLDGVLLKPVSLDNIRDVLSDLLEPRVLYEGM
The description is as above. The following applies: both partners purified.

These results are taken from article PMC3166298, “Phosphorylation Alters the Interaction of the Arabidopsis Phosphotransfer Protein AHP1 with Its Sensor Kinase ETR1” (PLoS ONE, 2011).

Sequence of CheW (P0A964 whole entry): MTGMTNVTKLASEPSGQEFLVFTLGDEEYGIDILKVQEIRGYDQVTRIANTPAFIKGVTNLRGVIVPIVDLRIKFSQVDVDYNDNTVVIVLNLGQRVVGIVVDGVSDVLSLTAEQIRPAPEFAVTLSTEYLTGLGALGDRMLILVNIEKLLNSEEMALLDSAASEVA

In general, Kd refers to the concentration at which binding is half-saturated. CheA (from UniProt P07363): the Kd in the data set with CheW is 17 µM.

B1: dansylated ETR1 (receptor, Arabidopsis, UniProt P49333 1-738, looked up)
chain: MEVCNCIEPQWPADELLMKYQYISDFFIAIAYFSIPLELIYFVKKSAVFPYRWVLVQFGAFIVLCGATHLINLWTFTTHSRTVALVMTTAKVLTAVVSCATALMLVHIIPDLLSVKTRELFLKNKAAELDREMGLIRTQEETGRHVRMLTHEIRSTLDRHTILKTTLVELGRTLALEECALWMPTRTGLELQLSYTLRHQHPVEYTVPIQLPVINQVFGTSRAVKISPNSPVARLRPVSGKYMLGEVVAVRVPLLHLSNFQINDWPELSTKRYALMVLMLPSDSARQWHVHELELVEVVADQVAVALSHAAILEESMRARDLLMEQNVALDLARREAETAIRARNDFLAVMNHEMRTPMHAIIALSSLLQETELTPEQRLMVETILKSSNLLATLMNDVLDLSRLEDGSLQLELGTFNLHTLFREVLNLIKPIAVVKKLPITLNLAPDLPEFVVGDEKRLMQIILNIVGNAVKFSKQGSISVTALVTKSDTRAADFFVVPTGSHFYLRVKVKDSGAGINPQDIPKIFTKFAQTQSLATRSSGGSGLGLAISKRFVNLMEGNIWIESDGLGKGCTAIFDVKLGISERSNESKQSGIPKVPAIPRHSNFTGLKVLVMDENGVSRMVTKGLLVHLGCEVTTVSSNEECLRVVSHEHKVVFMDVCMPGVENYQIALRIHEKFTKQRHQRPLLVALSGNTDKSTKEKCMSFGLDGVLLKPVSLDNIRDVLSDLLEPRVLYEGM
modifications: dansyl label (dansyl chloride; typical ratio of protein-dansyl labeling 1:4), positions not given
notes: In a dodecylmaltoside micelle; theoretical molecular weight printed as 84.9 kDa; also called ETR1 (dansylated); source: recombinant, purified from the bacterial host, then dansylated
The term stoichiometry N denotes a count of units in the complex or per binding partner. As to B1, the “stoichiometry N” value in data set [1] was 2.
Regarding B2, in [2], the “stoichiometry N” value came out at 2.

B3: dansylated AHP1, Q9ZNV9 1-154 (natural protein)
chain: MDLVQKQKSLQDYTKSLFLEGILDSQFLQLQQLQDESNPDFVSQVVTLFFQDSDRILNDLSLSLDQQVVDFKKVDPHVHQLKGSSSSIGAQRVKNACVVFRSFCEQQNVEACHRCLQQVKQEYYLVKNRLETLFKLEQQIVASGGMIPAVELGF
modifications: here or on the partner: dansyl label (dansyl chloride; typical ratio of protein-dansyl labeling 1:4), positions not given; dansyl label (dansyl chloride; typical ratio of protein-dansyl labeling 1:4), positions not given
In the case of B3, the stoichiometry N in data set [3] and in [4] was 2 in each case.

B4: AHP1-GFP(S65T), wild type Arabidopsis histidine-containing phosphotransfer protein 1 fused to green fluorescent protein, Q9ZNV9 1-154 (natural protein)
chain: MDLVQKQKSLQDYTKSLFLEGILDSQFLQLQQLQDESNPDFVSQVVTLFFQDSDRILNDLSLSLDQQVVDFKKVDPHVHQLKGSSSSIGAQRVKNACVVFRSFCEQQNVEACHRCLQQVKQEYYLVKNRLETLFKLEQQIVASGGMIPAVELGF
On to B4, for which the stoichiometry N in [5] was 2.

B5: dansylated AHP1 (natural protein, Arabidopsis, UniProt Q9ZNV9 1-154, looked up)
chain: MDLVQKQKSLQDYTKSLFLEGILDSQFLQLQQLQDESNPDFVSQVVTLFFQDSDRILNDLSLSLDQQVVDFKKVDPHVHQLKGSSSSIGAQRVKNACVVFRSFCEQQNVEACHRCLQQVKQEYYLVKNRLETLFKLEQQIVASGGMIPAVELGF
modifications: dansyl label (dansyl chloride; typical ratio of protein-dansyl labeling 1:4), positions not given
notes: Theoretical molecular weight printed as 18.3 kDa; also called AHP1 (dansylated, without GFP); source: recombinant, purified from the bacterial host, then dansylated
As for B5, in [6], the binding result is “binds”.

B6: AHP1(H79E)-GFP(S65T) (natural protein, Arabidopsis, UniProt Q9ZNV9 1-154, looked up)
chain: MDLVQKQKSLQDYTKSLFLEGILDSQFLQLQQLQDESNPDFVSQVVTLFFQDSDRILNDLSLSLDQQVVDFKKVDPHVEQLKGSSSSIGAQRVKNACVVFRSFCEQQNVEACHRCLQQVKQEYYLVKNRLETLFKLEQQIVASGGMIPAVELGF
notes: AHP1, Arabidopsis histidine-containing phosphotransfer protein 1; also called AHP1 mutant mimicking permanent phosphorylation
With B6, the Kd was 3.6 µM with ETR1-D659A and 16.3 µM with ETR1-D659E.

B7: AHP1(H79A)-GFP(S65T) (natural protein, Arabidopsis, UniProt Q9ZNV9 1-154, looked up)
chain: MDLVQKQKSLQDYTKSLFLEGILDSQFLQLQQLQDESNPDFVSQVVTLFFQDSDRILNDLSLSLDQQVVDFKKVDPHVAQLKGSSSSIGAQRVKNACVVFRSFCEQQNVEACHRCLQQVKQEYYLVKNRLETLFKLEQQIVASGGMIPAVELGF
notes: AHP1, Arabidopsis histidine-containing phosphotransfer protein 1
As to B7, the Kd with ETR1-D659A came to 15.4 µM; with ETR1-D659E it was 2.6 µM.
